Experimental data: patent publication US20230174641A1 (H LUNDBECK A S, published 2023)
Ends that are not written are not given here.

Tests used:
human ACTH 1-39 [1] = target: T1, human ACTH 1-39 (human); experiment: cell-based or functional assay
T1 peptide: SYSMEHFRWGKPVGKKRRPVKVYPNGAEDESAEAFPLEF

human ACTH 1-39 [2] = target: T1, human ACTH 1-39; experiment: cell-based or functional assay
[3] = target: T2, N-term biotinylated human ACTH 1-39 (human, N-terminal biotin); experiment: competition HTRF, biotinylated human ACTH 1-39 in the presence of ACTH 1-13 and ACTH 18-39 at 10X (550 nM each, [p-2038])
T2 construct: also called huACTH 1-39
T2 peptide: T1 peptide
Experimental: (§1) Twenty microliters of Eu3+cryptate labeled anti-hu Fc donor and 20 μl of d2-labeled streptavidin acceptor were added to each well and incubated for 1 hour at room temperature. Fluorescence was measured at […] with a delay of 300 μsec.

[4] = target: T2, N-term biotinylated human ACTH 1-39; experiment: ELISA, biotin-ACTH 1-39 on neutravidin plate
Experimental: All incubations were done at room temperature. […] The plates were then blocked using a blocking solution (PBS, 0.5% fish skin gelatin, 0.05% Tween-20) for approximately one hour. The blocking solution was then removed and the plates were then incubated with a dilution series of the antibody being tested for approximately one hour. At the end of this incubation, the plate was washed three times with wash buffer and further incubated with a secondary antibody containing solution (Peroxidase conjugated AffmiPure™ F(ab′)₂ fragment goat anti-human IgG, Fc fragment specific (Jackson Immunoresearch) for approximately 45 minutes and washed three times. Next a substrate solution (TMB peroxidase substrate, BioFx®, SurModics, Eden Prairie, Minn.) was added and incubated for 3 to 5 minutes in the dark. The reaction was stopped by addition of 0.5 M HCl and the plate was read at 450 nm in a plate-reader.

human ACTH 1-13 = target: T3, human ACTH 1-13 (human, ends and bridges not checked); experiment: SPR ProteOn, antibody immobilised; SPR, antibody on the chip, alpha-MSH alone (Table 6)
T3 construct: also called human alpha-MSH (ACTH 1-13); alpha-MSH
T3 peptide: SYSMEHFRWGKPV
Experimental: (§2) Antibody was immobilized to the surface of general amine coupling (GLC or GLM) Chips (Bio-Rad). […] At the chosen concentrations of antigen (ranging from 454 ng/ml to 5.6 ng/ml) association times of 200 seconds and dissociation times of 30-200 minutes were used with the ProteOnTM Manager Software (v3.1.0.6, Bio-Rad) to group and fit data using a 1:1 Langmuir binding model. Surfaces were regenerated between analyte queries using 10 mM glycine at pH 2.0. Data repeated across a single density was averaged and a single KD and standard propagation of error calculated for each antibody.

human ACTH 1-39 [5] = target: T1, human ACTH 1-39; experiment: cell-based or functional assay
[6] = target: T2, N-term biotinylated human ACTH 1-39; experiment: competition HTRF, biotinylated human ACTH 1-39 in the presence of ACTH 1-13 and ACTH 18-39 at 1X (55 nM each, [p-2038])
Experimental: as §1

human ACTH 1-39 [7] = target: T1, human ACTH 1-39; experiment: cell-based or functional assay
human ACTH 1-39 [8] = target: T1, human ACTH 1-39; experiment: SPR ProteOn, antibody immobilised
Experimental: as §2

human ACTH 18-39 = target: T4, human ACTH 18-39 (human); experiment: SPR ProteOn, antibody immobilised
T4 construct: also called CLIP; CLIP (ACTH 18-39)
T4 peptide: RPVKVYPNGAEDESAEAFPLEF
Experimental: as §2

B1: Ab5 (antibody, human IgG1, kappa, N297A, V domains shown)
VH: QSVEESGGRLVTPGTPLTLTCTVSGFSLSSYAMSWVRQAPGEGLEWIGIISDSGSTYYASWAKGRFTISKTSTTVDLKITSPTTEDTATYFCAREPEYGYDDYGDWVSDLWGQGTLVTVSS
VL: DIVMTQTPASVSEPVGGTVTIKCQASQSISSYLSWYQQKPGQPPKLLIYRASTLASGVPSRFKGSGSGTQFTLTISDLECADAATYYCQSYYYSSSITYRNAFGGGTEVVVKR
notes: rabbit/human chimeric antibody, made in HEK-293
Question: With B1 as the binder, how does the “MC1R IC50” value (human ACTH 1-39 [1]) read?
Answer: Its value is 1.96 nM.

Question: What about the “MC2R IC50” value (human ACTH 1-39 [2]) of the same binder?
Answer: The value was 0.11 nM.

Question: And the “EC50 (read off the curve)” value [3]?
Answer: Its value is roughly 3 nM.

Question: What about the EC50 [4] of the same binder?
Answer: The EC50 was 1.5 nM.

Question: And the Kd (human ACTH 1-13)?
Answer: The Kd was 55 nM.

Question: What about the koff (human ACTH 1-13) of the same binder?
Answer: The koff was 0.014 s⁻¹.

Question: What about the kon (human ACTH 1-13) of the same binder?
Answer: The kon was 260000 M⁻¹ s⁻¹.

Question: And the “Y1 Cells IC50” value (human ACTH 1-39 [5])?
Answer: The value was 3.49 nM.

Question: What about the “EC50 (read off the curve)” value [6] of the same binder?
Answer: Its value is roughly 2 nM.

Question: What about the “MC3R IC50” value (human ACTH 1-39 [7]) of the same binder?
Answer: The value was 58.1 nM.

Question: And the “MC4R IC50” value (human ACTH 1-39 [7])?
Answer: The value was 43.4 nM.

Question: And the “MC5R IC50” value (human ACTH 1-39 [7])?
Answer: Its value is 1000 nM.

Question: And the Kd (human ACTH 1-39 [8])?
Answer: The Kd was 0.064 nM.

Question: And the koff (human ACTH 1-39 [8])?
Answer: Its koff is 6.4e-05 s⁻¹.

Question: What about the kon (human ACTH 1-39 [8]) of the same binder?
Answer: The kon was 1e+06 M⁻¹ s⁻¹.

Question: What about the koff (human ACTH 18-39) of the same binder?
Answer: Its koff is greater than 0.1 s⁻¹.
